Experimental data published in article PMC9437119.

Target: T1, Flag-tagged human Fis1 (WT) (human), Q9Y3D6
T1 chain: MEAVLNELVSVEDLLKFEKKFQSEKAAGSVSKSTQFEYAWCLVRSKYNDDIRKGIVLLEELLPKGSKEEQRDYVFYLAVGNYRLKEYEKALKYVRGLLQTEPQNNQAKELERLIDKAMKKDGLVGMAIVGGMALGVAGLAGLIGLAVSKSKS
Test: SDS-resistant oligomers on SDS-PAGE immunoblot of the immunoprecipitate; anti-myc immunoprecipitate of the Mid51/Fis1 complex from HeLa lysate heated 20 min at 55°C, 4-20% Tris-Glycine SDS-PAGE; SDS-resistant complexes detected with anti-myc (Mid51 species) or anti-Flag (Fis1 species); species normalized to monomer
Settings: remark: other sources report otherwise

B1: Flag-tagged human Fis1 (WT), Q9Y3D6 1-152 (natural protein)
chain: MEAVLNELVSVEDLLKFEKKFQSEKAAGSVSKSTQFEYAWCLVRSKYNDDIRKGIVLLEELLPKGSKEEQRDYVFYLAVGNYRLKEYEKALKYVRGLLQTEPQNNQAKELERLIDKAMKKDGLVGMAIVGGMALGVAGLAGLIGLAVSKSKS
stoichiometry N: 4
